# Assay results reported in PMC11879086, “Identification and characterization of a human MORC2 DNA binding region that is required for gene silencing” (Nucleic Acids Research, 2024).
# T1: MORC2 alanine mutant (Homo sapiens, UniProt Q9Y6X9 1-1032, K704A;R707A;K713A;K716A;K721A;K722A;R754A;R755A;K756A;R758A;K760A;R761A)
# T1 sequence: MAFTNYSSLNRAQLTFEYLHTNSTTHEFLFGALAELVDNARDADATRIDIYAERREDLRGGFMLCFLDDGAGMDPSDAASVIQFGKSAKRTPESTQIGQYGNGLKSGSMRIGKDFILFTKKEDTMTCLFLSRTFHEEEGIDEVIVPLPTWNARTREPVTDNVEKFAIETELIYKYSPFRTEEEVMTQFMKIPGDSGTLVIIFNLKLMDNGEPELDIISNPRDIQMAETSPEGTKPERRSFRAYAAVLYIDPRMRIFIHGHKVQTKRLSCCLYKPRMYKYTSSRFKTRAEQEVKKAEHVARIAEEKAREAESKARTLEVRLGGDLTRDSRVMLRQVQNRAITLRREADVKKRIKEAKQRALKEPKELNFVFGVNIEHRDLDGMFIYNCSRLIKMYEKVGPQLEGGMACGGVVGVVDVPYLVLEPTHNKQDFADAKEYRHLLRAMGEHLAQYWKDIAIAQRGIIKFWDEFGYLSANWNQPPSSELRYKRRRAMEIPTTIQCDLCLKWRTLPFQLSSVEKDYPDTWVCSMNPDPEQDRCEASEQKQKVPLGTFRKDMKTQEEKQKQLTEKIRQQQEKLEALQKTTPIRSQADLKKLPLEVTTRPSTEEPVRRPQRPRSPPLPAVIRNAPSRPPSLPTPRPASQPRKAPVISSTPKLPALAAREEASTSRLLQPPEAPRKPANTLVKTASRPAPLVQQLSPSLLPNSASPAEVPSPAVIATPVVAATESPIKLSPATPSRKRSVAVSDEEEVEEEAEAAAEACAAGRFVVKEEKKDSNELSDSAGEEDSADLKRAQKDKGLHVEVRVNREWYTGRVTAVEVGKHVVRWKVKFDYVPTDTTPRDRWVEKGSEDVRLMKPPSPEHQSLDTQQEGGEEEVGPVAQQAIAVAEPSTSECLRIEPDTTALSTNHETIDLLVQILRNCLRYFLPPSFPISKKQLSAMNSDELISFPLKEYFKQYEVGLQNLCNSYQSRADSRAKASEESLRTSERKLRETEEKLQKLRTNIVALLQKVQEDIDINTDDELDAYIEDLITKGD
# T2: MORC2 subset N (Homo sapiens, UniProt Q9Y6X9 1-1032, K704D;R707D;K713D;K716D;K721D;K722D)
# T2 sequence: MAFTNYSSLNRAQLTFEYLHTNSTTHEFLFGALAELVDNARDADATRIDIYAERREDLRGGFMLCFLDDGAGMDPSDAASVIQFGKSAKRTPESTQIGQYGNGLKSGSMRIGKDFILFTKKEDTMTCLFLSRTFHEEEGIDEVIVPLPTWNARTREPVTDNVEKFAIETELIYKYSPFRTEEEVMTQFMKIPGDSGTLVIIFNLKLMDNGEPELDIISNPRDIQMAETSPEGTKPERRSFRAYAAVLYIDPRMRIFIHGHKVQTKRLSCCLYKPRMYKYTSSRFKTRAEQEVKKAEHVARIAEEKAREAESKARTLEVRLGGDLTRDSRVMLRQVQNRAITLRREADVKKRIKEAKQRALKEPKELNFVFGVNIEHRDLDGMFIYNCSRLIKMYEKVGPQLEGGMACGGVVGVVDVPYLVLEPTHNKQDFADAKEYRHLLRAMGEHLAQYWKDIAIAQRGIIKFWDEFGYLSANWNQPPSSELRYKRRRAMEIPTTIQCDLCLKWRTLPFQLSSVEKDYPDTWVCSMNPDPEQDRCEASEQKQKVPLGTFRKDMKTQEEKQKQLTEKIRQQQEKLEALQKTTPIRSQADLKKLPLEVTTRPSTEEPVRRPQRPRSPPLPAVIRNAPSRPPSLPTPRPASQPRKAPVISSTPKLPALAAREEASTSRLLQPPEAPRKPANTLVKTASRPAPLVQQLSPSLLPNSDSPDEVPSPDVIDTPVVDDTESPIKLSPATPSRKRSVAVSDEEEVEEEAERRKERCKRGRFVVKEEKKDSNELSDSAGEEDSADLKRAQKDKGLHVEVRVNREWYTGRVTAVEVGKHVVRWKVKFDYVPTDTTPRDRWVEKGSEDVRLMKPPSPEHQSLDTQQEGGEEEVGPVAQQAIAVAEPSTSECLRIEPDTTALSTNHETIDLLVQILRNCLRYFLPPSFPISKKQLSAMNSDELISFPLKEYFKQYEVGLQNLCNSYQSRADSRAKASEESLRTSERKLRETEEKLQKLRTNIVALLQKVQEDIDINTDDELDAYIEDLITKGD
# Assays:
# MORC2 alanine mutant = biological target: T1, MORC2 alanine mutant; assay: fluorescence anisotropy; apo; FA/EMSA: 50 mM NaCl, 3 mM MgCl2, 20 mM Na-HEPES pH 7.4, 1 mM TCEP, 10% glycerol, 0.025 mM ZnCl2, 50 ug/ml BSA, room temperature; 1 nM nucleic acid (FA) or 20 nM DNA (EMSA); details: protein: recombinant; tags: tag removed by TEV; chain copies: 2; label: 5'-6-FAM; blunt
# MORC2 subset N = biological target: T2, MORC2 subset N; assay: as above; details: protein: recombinant; tags: tag removed by TEV; chain copies: 2; label: 5'-6-FAM; blunt
binder,measurement,setting,value
Random 35mer dsDNA (dsDNA) DNA 1: ATAGGGTCCATCAGAATTCGGATGAACTCGGTGTG DNA 2: CACACCGAGTTCATCCGAATTCTGATGGACCCTAT,Kd,MORC2 alanine mutant,350 ± 60 nM
same,Kd,MORC2 subset N,90 ± 20 nM
